± gives the uncertainty stated by the source.
Experiment: protein stability index of a GFP-peptide fusion (yeast GPS) (PSI 1-4); higher = more stable; sorted into four equal gates, so the index is relative within each strain
Outline: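 Tiled yeast protein peptides of 17 residues were each joined downstream of GFP, on plasmids that also express Cherry. The pooled library was maintained in yeast, and mid-log cultures in leucine-free medium were sorted into four equal gates on the GFP/Cherry ratio. Plasmids from every gate were amplified by PCR and sequenced on Illumina, with barcodes linking reads to strains. The protein stability index of a peptide is its gate-number-weighted read frequency summed over the gates.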

Row | Sequence | protein stability index (doa10∆) | protein stability index (pdr5∆) | protein stability index (ubr1∆) | protein stability index (san1∆)
1 | GIHILLYSGLIIDEIIT [RPC82] | 1.15 ± 0.094 | 1.41 ± 0.25 | 1.21 ± 0.082 | 
2 | QLTVCGAIIGWTRGTGL [FAS2] | 1.26 ± 0.079 | 1.18 ± 0.067 | 1.3 ± 0.085 | 1.09 ± 0.23
3 | EVEKAHPIRLYTRYLDR [PRP8] | 3.11 ± 0.082 | 2.51 ± 0.068 | 2.94 ± 0.048 | 2.35 ± 0.078
4 | GAKGSTLIVVPFNQGSK [FAS2] | 2.1 ± 0.095 | 2.48 ± 0.088 | 1.85 ± 0.073 | 2.18 ± 0.14
5 | PIYYQKLKHMVLDKMHA [RET1] | 1.58 ± 0.076 | 2.03 ± 0.088 | 1.77 ± 0.063 | 1.62 ± 0.094
6 | VETILSGKARICIVGGY [FAS2] | 1.33 ± 0.24 | 1.32 ± 0.17 | 1.14 ± 0.13 | 1.23 ± 0.16
7 | KKLFQKKENLTRDETVS [YML103C/NUP188] | 2.65 ± 0.23 | 3.29 ± 0.12 | 3.3 ± 0.088 | 3.01 ± 0.08
8 | LQVDVDIAGQRDDALVV [RRP42] | 2.07 ± 0.17 |  |  | 
9 | RFQDPYVAIVVDPLKSL [RRI1] |  | 2.79 ± 0.13 | 2.69 ± 0.13 | 2.26 ± 0.2
10 | HLLVKQGDGLLTKLQKY [RPN7] | 2.97 ± 0.13 | 2.44 ± 0.1 | 3 ± 0.16 | 3.19 ± 0.12
11 | TAGVGSTPNFGGNSNKS [SIN4] | 3.73 ± 0.2 | 3.31 ± 0.21 | 3.36 ± 0.061 | 3.39 ± 0.078
12 | FWFDKLVTKILPLKKNE [YCG1] | 2.83 ± 0.21 | 3 ± 0.14 | 2.43 ± 0.24 | 3.1 ± 0.15
13 | KSESPSEVLVDTLDSKS [ISW2] | 2.98 ± 0.067 | 3.11 ± 0.068 | 3.24 ± 0.056 | 2.96 ± 0.075
14 | VYRFVTENAIEEKVIER [ISW2] | 2.42 ± 0.11 | 2.46 ± 0.14 | 2.7 ± 0.063 | 2.5 ± 0.25
15 | HHRDSNFPDEDDDDSRK [SKP1] | 3 ± 0.18 | 3.55 ± 0.17 | 3.5 ± 0.18 | 3.07 ± 0.14
16 | KGLLIWRLLFIDKFIMV [GRR1] | 1.43 ± 0.062 | 1.35 ± 0.048 | 1.5 ± 0.052 | 1.41 ± 0.089
17 | VLDIVPGSSITETEVER [SRB4] | 3.04 ± 0.13 | 2.88 ± 0.15 | 2.83 ± 0.12 | 2.57 ± 0.18
18 | DPDNTSFSDENSDDFFM [ESC2] | 2.31 ± 0.13 | 2.39 ± 0.11 | 1.5 ± 0.088 | 2.54 ± 0.09
19 | DLRLGSQSLGVSNKFEK [PUP3] | 3.52 ± 0.14 | 3.52 ± 0.16 | 3.62 ± 0.13 | 2.94 ± 0.13
20 | NNGVSNLWKNIFLSKEN [COR1] | 2.98 ± 0.082 | 2.9 ± 0.059 | 2.4 ± 0.058 | 2.67 ± 0.089
21 | HQHIGKASTISRGAVSG [RPL2A] | 2.55 ± 0.043 | 2.39 ± 0.059 | 3.12 ± 0.05 | 2.83 ± 0.055
22 | LGEIPNPMKKHKPNEGR [SIR4] | 2.58 ± 0.077 | 2.55 ± 0.086 | 2.88 ± 0.04 | 2.8 ± 0.062
23 | QLPANMVHLYSIVEECD [RPC17] | 1.99 ± 0.044 | 1.98 ± 0.045 | 2.02 ± 0.04 | 1.86 ± 0.065
24 | VKAQRPITGASLDLIKE [RPL24A] | 2.42 ± 0.062 | 2.07 ± 0.049 | 2.73 ± 0.05 | 2.69 ± 0.074
25 | KEKVEEQEQQQQQIIKI [RPS20] | 3.16 ± 0.076 | 3.38 ± 0.11 | 3.24 ± 0.091 | 3.19 ± 0.066
26 | STFQTRRRRLKKVEEEE [RPB4] | 3.33 ± 0.15 | 3.52 ± 0.12 | 3.36 ± 0.14 | 

Row | Sequence | protein stability index (doa10∆) | protein stability index (pdr5∆) | protein stability index (ubr1∆) | protein stability index (san1∆)
27 | LCMDSSYIGTIIVKDKS [POP1] | 1.2 ± 0.091 | 1.49 ± 0.048 | 1.28 ± 0.089 | 1.13 ± 0.11
28 | KGTGEESNDRINKIVEI [YGR119C/NUP57] | 3.66 ± 0.18 | 3.18 ± 0.16 | 2.89 ± 0.15 | 2.93 ± 0.17
29 | QLKRWYWQFNGVIALGQ [RMP1] |  |  | 1.41 ± 0.22 | 
30 | VPNILSLDMNSMNKELI [NUT1] | 2.14 ± 0.075 | 1.96 ± 0.084 | 1.91 ± 0.075 | 1.46 ± 0.27
31 | TGAGVDVNTNANANANA [SNF11] | 3.12 ± 0.074 | 3.31 ± 0.07 | 3.34 ± 0.051 | 3.19 ± 0.045
32 | NIETGENHNGQSISNEN [SWI3] | 2.59 ± 0.26 | 3.14 ± 0.12 | 3.13 ± 0.12 | 3.06 ± 0.12
33 | LVHSEYLINGKRFKRKD [SRP68] | 2.68 ± 0.16 | 2.79 ± 0.065 | 2.67 ± 0.038 | 2.84 ± 0.076
34 | QKGTIGITYRREDMPFT [RPB2] | 3.01 ± 0.1 | 2.68 ± 0.08 | 2.9 ± 0.069 | 2.8 ± 0.08
35 | MFGAKPAGTSLFGNNAG [YGL172W/NUP49] | 3.16 ± 0.076 | 3.08 ± 0.067 | 3.06 ± 0.053 | 3.01 ± 0.072
36 | EESSTGKSTADVKSSDS [YJL041W/NSP1] |  | 3.35 ± 0.19 |  | 
37 | NILKILSSLILKIFQEQ [SRB8] | 2.17 ± 0.047 | 1.99 ± 0.05 | 2.02 ± 0.037 | 2.48 ± 0.1
38 | NDSENNSSEEDKKKGQN [ITC1] | 2.24 ± 0.073 | 2.53 ± 0.11 | 2.86 ± 0.1 | 2.68 ± 0.12
39 | LRQLLKERYTVEDELTE [RRI1] | 3.04 ± 0.097 | 2.71 ± 0.15 | 3.51 ± 0.084 | 3.33 ± 0.076
40 | AGDLRALDTVTNVLNFI [FAS1] | 3.04 ± 0.1 | 3.22 ± 0.14 | 2.54 ± 0.24 | 2.95 ± 0.11
41 | PPKEGNYEIVFDTVSNK [YMR129W/POM152] | 3.11 ± 0.086 | 3.13 ± 0.095 | 3 ± 0.1 | 3.29 ± 0.26
42 | DKKLNLNLPLQFSLPNG [SNF12] | 3.04 ± 0.085 | 3.02 ± 0.079 | 2.7 ± 0.075 | 2.62 ± 0.074
43 | AHDYNNDQDMFTIVSLV [YML103C/NUP188] | 2.76 ± 0.21 | 3.11 ± 0.16 | 2.95 ± 0.13 | 3.23 ± 0.12
44 | NDKQGFPMKQGVLLPTR [RPS6A] | 2.75 ± 0.098 | 3.06 ± 0.14 | 2.57 ± 0.12 | 2.79 ± 0.075
45 | KCNDGVVFAVEKLITSK [PRE10] |  |  |  | 2.87 ± 0.22
46 | ILKSPHLSKSPADRPQG [SIR4] | 2.43 ± 0.074 | 2.51 ± 0.058 | 2.37 ± 0.045 | 2.33 ± 0.056
47 | YLKAFDKNKLLLLAAQI [SSN2] | 1.32 ± 0.061 | 1.37 ± 0.052 | 1.42 ± 0.045 | 1.36 ± 0.085
48 | GIRIISLTYKKISLRDI [RPN3] | 1.78 ± 0.068 | 1.4 ± 0.065 | 1.5 ± 0.053 | 1.29 ± 0.15
49 | WKAPSSIVLDSEHFDVN [DIS3] | 3.14 ± 0.062 | 3.47 ± 0.064 | 3.33 ± 0.052 | 3.28 ± 0.056
50 | RAPKVIHGQDFQFFPKE [ISW2] | 2.56 ± 0.068 | 2.47 ± 0.069 | 2.83 ± 0.052 | 3.17 ± 0.065
51 | YKKLDIDGKVIQAGKFD [SNF2] | 2.94 ± 0.088 | 3.36 ± 0.08 | 2.99 ± 0.059 | 3.06 ± 0.044

Source: the supplement of paper PMC9732359
